# Results reported in the DeepSol protein solubility set.
# Experiment: soluble on expression in E. coli; label from the status in PepcDB or PDB records
row,Sequence,soluble on expression in E. coli
1,MCENLYGEEYKMEILRLQKMMNNMTCGQMAKPLTMKDFQIHQALGKGAYGNVYRVRSLHDGKDYALKQIMISSKNEGIPQSVLREITVMKHLARKAHPNIISLKSVFHQLDPVRAILKINMIMERCDWDLHTFLRNIPRGVPEQQAKHVTAQIVRALDFLHTHSIIHRDLKPQNILLNRDQTVKLADFGLSKEYSNTTAFTTLVVTLWYRSPEVLLQSYYNSTVDMWALGCIVSEIYCRQPLFVGQNEAEQLTDIFKKMGTPVGKDWPSESVIARDSFPQYRPTNLKDLSPQMSKQAIEFVQQCLRYDHSKRLSARGALSHPFLKPAVATKSRVLKQINFNK,not soluble
2,MSLFRGFGRSTLAKIGSTEISTEQFRQTYNDRLQQIGRQFGRPLTPDQARAIGIDRQVLQQTIAEAALDEDARRLGLGQSDADTMKSILEDPNFKGANGQFDANRFQQLIRQFGFTEQRYLAEQRRVALRRQIAGSLTAGLEAPKTLMQALSQFQSEERAIDYLKLTDAQAGTIAAPSPADLTAFYDSHKAQFRAPEYRKISFLVVTPESIAKWAEVSDADAQKLFEQRKDKLSTPEKRQLLQIVFPSVEEAQAGRAKIASGTSFADLAKERGVKPADLDLGLVSQSEMLDQKVAAAAFALPLNEVSQPVQGQFGTVLLEVTKIETEGHHHHHH,soluble
3,MYSPESMNSNISSPSPPSSSSLNAPSLADAPEVRSDDGEAETSEPSTSVTAVPMEIVSQASTSAPVNQLLASGIDMSSVIKNNAVLQALLASASAGGFGDNAGLTMSKLLTAALANGSTAVAKRDAGSPRTDIPKKTRLKVFSNGFFMTFDKLSSCQKKYFWRCEYKNTCKARMHTDIVTEKILTFIHEHNHSAPIDEEVRLYGLDPTNIERNRVYIVGNVADPNQRRKIRKQVADREAAAKRLVQQQEEEQQKQQSASSIVAARAAYAQAMQNGSIPTSSGVASFLQSTSATAPMTSHSMLLAQMPFLNNIKTEMSNMVKNEQFTPERYTQHMSPNLPLQTATIAPLIIPTENYDSPSYRQPAIKRKATDLTNEEHDLRRDPMFQPTFELARKLRKLWKGEPNRYPRTTTTPTHHFEFFLSKNDGTDEHLYVPMRINLRDEAHLKEALQDFCGQQCIGMLLFGISPKISVMFNQPMLNNWDNNQFFLLDISNPSRWRLMYVDDQAV,not soluble
4,MGSDKIHHHHHHMEHPENNEEYKGLVVNKGIEQPSSVNPYLKRKPKKRQLSVAEFVEGIVKGDVTILSQAVTLVESVKPEHQAVAQEVIEKCLPYSGNSIRVGISGVPGAGKSTSIDVFGLHVLEKGGKLAVLAIDPSSERSKGSILGDKTRMEQLSVHPQSFIRPSPSAGSLGGVARKTRETIVLCEAAGFDKIFVETVGVGQSETAVHSMVDFFLLIQLAGTGDELQGIKRGIMEMADGIVINKADGDNLEPAKLAASQFRNALHLFPAPESGWIPKVLTYSGFYNIGVKEIWDMVYEYIDFVKKNGYFDYRRNEQSKYWMYETINEQLRDSFYHNPRIEAMLQEKEQQVLQGNLTSFIAAKSLLDTYFDELKR,not soluble
5,MLSSPLRVAVVCVSNINRSMEAHSILRRKGLSVRSFGTESHVRLPGRRPNHPVVYDFATTYKEMYNDLLRKDRECYTHNGILHILGRNERIKPGPERFQECTEFFDVIFTCEERVYDTVVEDLCSREQQTFQPVHVINMDIKDTLEGAILGAFLICEICQCLQQSDDMEDSLEELLLQMEEKAGKSFLHTVCFYLEHHHHHH,soluble
6,MAHHHHHHMDINNIMEEVQAIKVLPHMMFNASKLKVLSDYVNVAFENNEYYDNDVMLTLLRLFCLYPHCYDKDIIKKILICVLYNINNVDMNMYMSLINSSLYDDNIKSVIYIYELIKNCQYKKLWNCINNNIGNEYNNCDYSYLKNDKNFICNIRKYILNTISISFESIYLKNMSEYLNIQDNTQLEQFLNENKWTIKMINHKGKDEQICYNGNIETVQNKKNINTYFTEDNIGSYITKLNH,not soluble
7,MTAAIAAPAYDAIVIGSGIGGLVTATQLAAKGAKVLVLERYLIPGGSAGWFEREGYRFDFGASIIFGFGDPGTTNLLTPPLADVGQALETIPDPVQIHYHLPNQLDLKVHRDYEAFLQELIAQFPQEAEGIRRFYDECWQVFNCLNAMPLLSLEEPKYLFNVFLQHPLACLGLVKYLPQNVGDIARRYIRNPDLLKFIDMECYCWSVVPATMTPMINAGMVFSDRHYGGINYPKGGVGRIAEKLVAGLEAKGSSIRYKARVTRILTEKGRAIGVELADGEKLYAKRIISNATRWNTFGELLPPQQEPAQEQRWQQRYRQSPSFLSLHLGVKADLLPAGTECHHILLENWDELEVEQGTIFVSIPTLLDPSLAPPDRHIIHTFTPSWLGEWDNLSPSEYRDRKAAAAAKLIQRLEAIFPGLSSAIDYQEVGTPRTHRRFLGRQNGTYGPIPRRKLAGLLGMPFNRTAIPGLYCVGDSTFPGQGLNAVAFSGYACGHRVAADLGLVLEHHHHHH,not soluble
8,SAPVGVEKKLLLGPNGPAVAAAGDLTSEEEEGQSLWSSILSEVSTRARSKLPSGKNILVFGEDGSGKTTLMTKLQGAEHGKKGRGLEYLYLSVHDEDRDDHTRCNVWILDGDLYHKGLLKFAVSAESLPETLVIFVADMSRPWTVMESLQKWASVLREHIDKMKIPPEKMRELERKFVKDFQDYMEPEEGCQGSPQRRGPLTSGSDEENVALPLGDNVLTHNLGIPVLVVCTKCDAVSVLEKEHDYRDEHLDFIQSHLRRFCLQYGAALIYTSVKEEKNLDLLYKYIVHKTYGFHFTTPALVVEKDAVFIPAGWDNEKKIAILHENFTTVKPEDAYEDFIVKPPVRKLVHDKELAAEDEQVFLMKQQSLLAKQPATPTRASESPARGPSGSPRTQGRGGPASVPSSSPGTSVKKPDPNIKNNAASEGVLASFFNSLLSKKTGSPGSPGAGGVQSTAKNSGQKTVLSNVQEELDRMTRKPDSMVTNSSTENEA,soluble
9,MQTSPEREAVIIRSGNSKILNTRSLMSDSRPEVLTEEDVLRLFPVLGGERRLTRRLLKALKITDINAVHARHINLRGAEFAHAALTDPAINVCYRLHGAEHLEEMRKGGAFTTVSNHPFGSLDGIMLIDIIGSVRPDYSVLVNGFLSMISCLRDSFIPVAPLKGMAGGLDSKHNVSGVKEVLNRLQNGQPVGFFPAGGISVYKGNRNRVMDSEWQASCAKMILVSQVPVYPIFFSGRNSWYFHFLGWLSWAIRTPRIPAELFNKRGHIFDVYIGDPIPPETIARFEKNPRELALFLYDRTYRLAPGHKKNK,not soluble
10,RKKPVSQSLEFPTRYSPYRPYRCVHQGCFAAFTIQQNLILHYQAVHKSDLPAFSAEVEEE,soluble
11,MAHHHHHHMPYNALVSSHLAELTLCKLAELMVPNDFNLFVLAIKDDLLSKALEDHSLFVFLSAAFVNAIIPKLKELKLEEDKDDSPHLCALRVRPHERPFKPRLLECLKDFKGKINAECRVLYKPEAKNFPLVDGFFFVESKPKIMVGLQMTTASEHHTIPSTVNLFKENMAKYFNGWEKFSRDMLWEIIYIQHADSTPLDGWQRCDYVNPRNKTDAENEIVAFWNGKVHQYQFVLTTEFVSKIREMKM,not soluble
12,MRIVAPVMPRHFDEAQAIDISKYEDVNLIEWRADFLPKDEIVAVAPAIFEKFAGKEIIFTLRTVQEGGNITLSSQEYVDIIKEINAIYNPDYIDFEYFTHKSVFQEMLDFPNLILSYHNFEETPENLMEAFSEMTKLAPRVVKIAVMPQSEQDVLDLMNYTRGFKTLNPEQEFATISMGKLGRLSRFAGDVIGSSWTYVSLDHVSGPGQVTLNDMKRIIEVLEMDISN,soluble
13,SENLYFQSKVTVGPDPSLVYRPDVDPEVAKDKASFRNYTSGPLLDRVFTTYKLMHTHQTVDFVRSKHAQFGGFSYKKMTVMEAVDLLDGLVDESDPDVDFPNSFHAFQTAEGIRKAHPDKDWFHLVGLLHDLGKVLALFGEPQWAVVGDTFPVGCRPQASVVFCDSTFQDNPDLQDPRYSTELGMYQPHCGLDRVLMSWGHDEYMYQVMKFNKFSLPPEAFYMIRFHSFYPWHTGRDYQQLCSQQDLAMLPWVREFNKFDIYTKCPDLPDVDKLRPYYQGLIDKYCPGILSW,soluble
14,MGSDKIHHHHHHMTMTKKDALLLAAKELFGEYGYSETTFKKISERAGVALGLLTHHYGNKEKLFLAAGLDVLDRFIVYLQDACAKGNNGYESVMNFCRAYLDFSIDKNEHFMVLVRCSPYSDMKTKTDRDIMYEKFNQVPRELEYHVRRGIEDGSLKSLPAYETTTVLTCNLVGSIRTKLLTPYAPPSLYDDVLEFISRSIKA,not soluble
